Data on 26 molecules can be found in patent publication US12649778.

Changes are numbered by the printed parent chain. Numbers in names are those of the source. Where “and” joins values, the source holds several entries; their conditions need not be identical. Equal entries are not always repeated.

The labels stand for the following.
B1: 65D3 chimeric Fab, NNK library L3 mutant S to A (VL S25A) (Fab, V domains shown)
VH: QSLEESGGRLVTPGGSLTLTCTVSGFSLSTHDISWVRQAPGKGLEWIGVIARRGSTYYASWAKGRFTISKTSTTVDLKITSPTIEDTATYFCAREEFDFWGQGTLVTVSS
VL: AVLTQTASPVSAAVGGTVTISCQSAQSVYNNKELSWFQQKPGQPPKLLISYASTLASGVPSRFKGSGSGTQFTLTISDLECDDAATYYCLGGYASTIDMWAFGGGTEVVVK
B2: 65D3 chimeric Fab, NNK library L2 mutant S to G (VL S24G) (Fab, V domains shown)
VH: B1 VH
VL: B1 VL with S24G, A25S
B3: 65D3 chimeric Fab, NNK library L20 mutant S to T (L-S57T) (Fab, V domains shown)
VH: B1 VH
VL: B1 VL with A25S, S57T
B4: 65D3 chimeric Fab, NNK library L20 mutant S to H (VL S57H) (Fab, V domains shown)
VH: B1 VH
VL: B1 VL with A25S, S57H
B5: 65D3 chimeric Fab, NNK library L3 mutant S to R (VL S25R) (Fab, V domains shown)
VH: B1 VH
VL: B1 VL with A25R
B6: 65D3 chimeric Fab, NNK library H17 mutant S to W (H-S55W) (Fab, V domains shown)
VH: B1 VH with S55W
VL: B1 VL with A25S
B7: 65D3 chimeric Fab, NNK library L2 mutant S to M (VL S24M) (Fab, V domains shown)
VH: B1 VH
VL: B1 VL with S24M, A25S
B8: 65D3 chimeric Fab, NNK library H25 mutant K to R (VH K63R) (Fab, V domains shown)
VH: B1 VH with K63R
VL: B1 VL with A25S
B9: 65D3 chimeric Fab, NNK library L3 mutant S to T (VL S25T) (Fab, V domains shown)
VH: B1 VH
VL: B1 VL with A25T
B10: 65D3 chimeric Fab, NNK library L5 mutant S to K (VL S27K) (Fab, V domains shown)
VH: B1 VH
VL: B1 VL with A25S, S27K
B11: 65D3 chimeric Fab, NNK library L5 mutant S to T (VL S27T) (Fab, V domains shown)
VH: B1 VH
VL: B1 VL with A25S, S27T
B12: 65D3 chimeric Fab, NNK library L8 mutant N to K (VL N30K) (Fab, V domains shown)
VH: B1 VH
VL: B1 VL with A25S, N30K
B13: 65D3 chimeric Fab, NNK library L5 mutant S to V (VL S27V) (Fab, V domains shown)
VH: B1 VH
VL: B1 VL with A25S, S27V
B14: 65D3 chimeric Fab, NNK library L18 mutant L to S (VL L55S) (Fab, V domains shown)
VH: B1 VH
VL: B1 VL with A25S, L55S
B15: 65D3 chimeric Fab, NNK library L8 mutant N to H (VL N30H) (Fab, V domains shown)
VH: B1 VH
VL: B1 VL with A25S, N30H
B16: 65D3 chimeric Fab, NNK library L5 mutant S to Y (VL S27Y) (Fab, V domains shown)
VH: B1 VH
VL: B1 VL with A25S, S27Y
B17: 65D3 chimeric Fab, NNK library L18 mutant L to N (VL L55N) (Fab, V domains shown)
VH: B1 VH
VL: B1 VL with A25S, L55N
B18: 65D3 chimeric Fab, NNK library H26 mutant G to K (H-G64K) (Fab, V domains shown)
VH: B1 VH with G64K
VL: B1 VL with A25S
B19: 65D3 chimeric Fab, NNK library L5 mutant S to F (VL S27F) (Fab, V domains shown)
VH: B1 VH
VL: B1 VL with A25S, S27F
B20: 65D3 chimeric Fab, NNK library L3 mutant S to K (VL S25K) (Fab, V domains shown)
VH: B1 VH
VL: B1 VL with A25K
B21: 65D3 chimeric Fab, NNK library L2 mutant S to T (VL S24T) (Fab, V domains shown)
VH: B1 VH
VL: B1 VL with S24T, A25S
B22: 65D3 chimeric Fab, NNK library L3 mutant S to L (VL S25L) (Fab, V domains shown)
VH: B1 VH
VL: B1 VL with A25L
B23: 65D3 chimeric Fab, NNK library L5 mutant S to M (VL S27M) (Fab, V domains shown)
VH: B1 VH
VL: B1 VL with A25S, S27M
B24: 65D3 chimeric Fab, NNK library L3 mutant S to H (VL S25H) (Fab, V domains shown)
VH: B1 VH
VL: B1 VL with A25H
B25: 65D3 chimeric Fab, NNK library L8 mutant N to R (VL N30R) (Fab, V domains shown)
VH: B1 VH
VL: B1 VL with A25S, N30R
B26: Antibody 74D3-1 (antibody, V domains shown)
VH: QSVEESGGRLVTPGTPLTLTCTVSGIDLSNNAMGWVRQAPGEGLEWIGTIYASGNTYYASWAKGRFAISKTSTTVDLKMTSLTAADTATYFCARLFNIWGPGTLVTVSS
VL: ADIVLTQSPASVSSAVGGTVTINCQASQSVYDNKNLSWFQQKPGQPPKQLIYAASTLASGVPSRFKGSGSGTQFTLTISGMQCDDAATYYCGGRDSGNIYDFGGGTEVVVK

One assay concerns the target Peptide 1593 (…) (Mycobacterium tuberculosis). Put plainly: ELISA, NNK clone supernatant on coated peptide.
Turning to B1, the OD450 nm worked out at 0.972 OD450 and the ratio (OD450 to WT OD450) is 1.21 fold of WT.

Consider B2, for which the OD450 nm is 1.02 OD450 and 1.11 OD450; the ratio (OD450 to WT OD450) was 1.23 fold of WT and 1.33 fold of WT.

Turning to B3, the OD450 nm worked out at 0.977 OD450 and the ratio (OD450 to WT OD450) is 2.05 fold of WT.

Regarding B4, the OD450 nm was determined as 0.596 OD450 and the ratio (OD450 to WT OD450) was 1.25 fold of WT.

For the molecule B5, the OD450 nm was 0.963 OD450 and 0.995 OD450 and 1.04 OD450; the ratio (OD450 to WT OD450) was 1.19 fold of WT and 1.23 fold of WT and 1.29 fold of WT.

Take B6: the OD450 nm worked out at 1.28 OD450 and the ratio (OD450 to WT OD450) was 2.06 fold of WT.

Take B7: the OD450 nm was 1.15 OD450 and 1.09 OD450; the ratio (OD450 to WT OD450) is 1.38 fold of WT and 1.31 fold of WT.

Take B8: the OD450 nm was 0.872 OD450 and the ratio (OD450 to WT OD450) was 1.4 fold of WT.

On to B9, for which the OD450 nm came to 0.956 OD450 and the ratio (OD450 to WT OD450) was 1.19 fold of WT.

Turning to B10, the OD450 nm was found to be 1.16 OD450 and the ratio (OD450 to WT OD450) was 1.49 fold of WT.

On to B11, for which the OD450 nm came to 1.11 OD450 and the ratio (OD450 to WT OD450) was 1.43 fold of WT.

With B12, the OD450 nm is 1.04 OD450 and 1.03 OD450; the ratio (OD450 to WT OD450) is 1.37 fold of WT and 1.35 fold of WT.

In the case of B13, the OD450 nm is 1.09 OD450 and the ratio (OD450 to WT OD450) is 1.41 fold of WT.

Regarding B14, the OD450 nm is 0.968 OD450 and the ratio (OD450 to WT OD450) was 1.3 fold of WT.

On to B15, for which the OD450 nm was 1.02 OD450 and 0.957 OD450; the ratio (OD450 to WT OD450) is 1.34 fold of WT and 1.25 fold of WT.

In the case of B16, the OD450 nm is 1.1 OD450 and 1.12 OD450; the ratio (OD450 to WT OD450) was 1.41 fold of WT and 1.44 fold of WT.

As for B17, the OD450 nm was 0.937 OD450 and the ratio (OD450 to WT OD450) is 1.26 fold of WT.

Take B18: the OD450 nm turned out to be 1.09 OD450 and the ratio (OD450 to WT OD450) was 1.3 fold of WT.

For the molecule B19, the OD450 nm came out at 1.11 OD450 and the ratio (OD450 to WT OD450) is 1.43 fold of WT.

With B20, the OD450 nm was determined as 0.982 OD450 and the ratio (OD450 to WT OD450) was 1.22 fold of WT.

Turning to B21, the OD450 nm is 1.01 OD450 and 1.07 OD450; the ratio (OD450 to WT OD450) was 1.21 fold of WT and 1.29 fold of WT.

Regarding B22, the OD450 nm was 0.954 OD450 and the ratio (OD450 to WT OD450) is 1.18 fold of WT.

Take B23: the OD450 nm is 1.16 OD450 and 1.14 OD450; the ratio (OD450 to WT OD450) is 1.49 fold of WT and 1.47 fold of WT.

As for B24, the OD450 nm was 0.95 OD450 and 0.97 OD450; the ratio (OD450 to WT OD450) is 1.18 fold of WT and 1.2 fold of WT.

The next assay has the same target. Put plainly: ELISA, NNK clone supernatant on coated peptide (22 hits).
In the case of B1, the OD450 nm stood at 0.972 OD450 and the ratio (OD450 to WT OD450) is 1.21 fold of WT.

Regarding B2, the OD450 nm was found to be 1.11 OD450 and the ratio (OD450 to WT OD450) was 1.33 fold of WT.

In the case of B4, the OD450 nm was found to be 0.596 OD450 and the ratio (OD450 to WT OD450) is 1.25 fold of WT.

B5: the OD450 nm turned out to be 0.963 OD450 and the ratio (OD450 to WT OD450) was 1.19 fold of WT.

Turning to B7, the OD450 nm came to 1.09 OD450 and the ratio (OD450 to WT OD450) was 1.31 fold of WT.

On to B8, for which the OD450 nm was 0.872 OD450 and the ratio (OD450 to WT OD450) was 1.4 fold of WT.

In the case of B9, the OD450 nm is 0.956 OD450 and the ratio (OD450 to WT OD450) is 1.19 fold of WT.

For B10, the OD450 nm was determined as 1.16 OD450 and the ratio (OD450 to WT OD450) is 1.49 fold of WT.

In the case of B11, the OD450 nm amounted to 1.11 OD450 and the ratio (OD450 to WT OD450) is 1.43 fold of WT.

As to B12, the OD450 nm came to 1.04 OD450 and the ratio (OD450 to WT OD450) was 1.37 fold of WT.

With B13, the OD450 nm was 1.09 OD450 and the ratio (OD450 to WT OD450) was 1.41 fold of WT.

As for B14, the OD450 nm was 0.968 OD450 and the ratio (OD450 to WT OD450) is 1.3 fold of WT.

Regarding B15, the OD450 nm is 0.957 OD450 and the ratio (OD450 to WT OD450) is 1.26 fold of WT.

For B16, the OD450 nm was found to be 1.12 OD450 and the ratio (OD450 to WT OD450) is 1.44 fold of WT.

As for B17, the OD450 nm stood at 0.937 OD450 and the ratio (OD450 to WT OD450) is 1.26 fold of WT.

As for B19, the OD450 nm is 1.11 OD450 and the ratio (OD450 to WT OD450) is 1.43 fold of WT.

As to B20, the OD450 nm came out at 0.982 OD450 and the ratio (OD450 to WT OD450) was 1.22 fold of WT.

For B21, the OD450 nm came out at 1.07 OD450 and the ratio (OD450 to WT OD450) was 1.29 fold of WT.

Consider B22, for which the OD450 nm turned out to be 0.954 OD450 and the ratio (OD450 to WT OD450) was 1.18 fold of WT.

In the case of B25, the OD450 nm turned out to be 0.958 OD450 and the ratio (OD450 to WT OD450) was 1.26 fold of WT.

B23: the OD450 nm came out at 1.14 OD450 and the ratio (OD450 to WT OD450) is 1.47 fold of WT.

With B24, the OD450 nm came out at 0.95 OD450 and the ratio (OD450 to WT OD450) is 1.18 fold of WT.

Another assay concerns the target Peptide 2004 (…) (Mycobacterium tuberculosis).
Assay: not given
Regarding B26, the rank by relative ELISA signal across the dilution series (1 = highest) turned out to be 9.
